Literature values, collected in patent US20260109963A1, “COMPOSITIONS, SYSTEMS, AND METHODS FOR REDUCING ADIPOSE TISSUE” (Oisin Biotechnologies, Inc., priority 2023, published 2026).

Tested on: Heart
Conditions: almost completely abrogated after IV delivery

B1: miR1d: miRNA/target site de-targeting heart & skeletal muscle (nucleic acid)
chain: GGCCGGCCAATACATACTTCTTTACATTCCACGATAATACATACTTCTTTACATTCCAACCGGTAATACATACTTCTTTACATTCCATCACAATACATACTTCTTTACATTCCAGGCCGGCC
modifications: listed as DNA, chemistry not fully specified; the letters are possibly those of the target site
notes: miRNA/target site de-targeting heart & skeletal muscle
transgene expression in heart (in words): Transgene expression in heart almost
